Reference: FireProtDB (doi:10.1016/s0014-5793(99)00158-1)

B1: Barstar, P11540 (parent)
chain: MKKAVINGEQIRSISDLHQTLKKELALPEYYGENLDALWDCLTGWVEYPLVLEWRQFEQSKQLTENGAESVLQVFREAKAEGCDITIILS

Variants of: B1
Conditions: Bacillus amyloliquefaciens; pH 6.2; Thermal; DSC; Na-acetate 10 mM; NaCl 0.05 M; reversible: yes; structure 1BTA; whole UniProt chain shown

| Variant | Tm [°C] | unfolding enthalpy (calorimetric) [kcal/mol] | unfolding enthalpy (van 't Hoff) [kcal/mol] |
| --- | --- | --- | --- |
| MKKAVINGEQIRSISDLHQTLKKELALPEYYGENLDALWDALTGWVEYPLVLEWRQFEQSKQLTENGAESVLQVFREAKAEGADITIILS | 73.6 | 73 | 71 |
| MKKAVINGEQIRSISDLHQTLKKELALPEYYGENLDALWDCLTGWVEYPLVLEWRQFEQSKQLTENGAESVLQVFREAKAEGADITIILS | 71.9 | 49 | 68 |
| MKKAVINGEQIRSISDLHQTLKKELALPEYYGENLDALWDALTGWVEYPLVLEWRQFEQSKQLTENGAESVLQVFREAKAEGCDITIILS | 74.1 | 51 | 73 |
